In PMC4941522:

Legend:
[1] = test system: Sso10a1 (Sulfolobus solfataricus); experiment: EMSA; details: TPM buffer conditions; data not shown; EMSA: TPM buffer II (composition not in the material), 69 nM DNA, 10 min, ~23 °C, 1% agarose 0.5x TBE; TPM: 100 mM or 20 mM NaCl
[2] = test system: Sso10a2 (Sulfolobus solfataricus); experiment: EMSA; details: TPM buffer conditions; data not shown; EMSA: TPM buffer II (composition not in the material), 69 nM DNA, 10 min, ~23 °C, 1% agarose 0.5x TBE; TPM: 100 mM or 20 mM NaCl

In the case of 685 bp DNA substrate (TPM/EMSA), the Kd [1] is reported as 1 nM and the Kd [2] is reported as 1 nM.
